PMC9407465

Experiments:
[1] = luciferase reporters; details: glycan lost
[2] = IP and acetylation immunoblot; details: glycan lost; control: wild type Gli2

| Protein | other: transcriptional activity ([1]; control: wild type Gli2) | other: Gli2 acetylation [2] | other: transcriptional activity ([1]; control: wild type GLI2) |
| --- | --- | --- | --- |
| Gli2 (GLI family zinc finger 2): S355A (protein) parent chain: METSAPAPALEKKEAKSGLLEDSSFPDPGKKACPLAVAAAVAAHGVPQQLLPAFHAPLPIDMRHQEGRYHYDPHSVHSVHGPPTLSGSPVISDISLIRLSPHPAGPGESPFSAHHPYVNPHMEHYLRSVHSSPTLSMISAARGLSPADVAHEHLKERGLFSLAAPGTNPSDYYHQMTLMASHPTPYGDLLMQSGGAASAPHLHDYLNPVDASRFSSPRVTPRLSRKRALSISPLSDASLDLQRMIRTSPNSLVAYINNSRSSSAASGSYGHLSAGALSPAFTFPHPINPVAYQQILSQQRGLGSAFGHTPPLIQPSPTFLAQQPMTLTSISTMPTQLSSSSSNCLNDANQNKQNSESAVSSTVNPITIHKRSKVKTEAEGLRPASPLGLTQEQLADLKEDLDRDDCKQEAEVVIYETNCHWADCTKEYDTQEQLVHHINNEHIHGEKKEFVCRWQACTREQKPFKAQYMLVVHMRRHTGEKPHKCTFEGCSKAYSRLENLKTHLRSHTGEKPYVCEHEGCNKAFSNASDRAKHQNRTHSNEKPYICKIPGCTKRYTDPSSLRKHVKTVHGPDAHVTKKQRNDVHVRAPLLKENGDNEASAEPGGRGPEESVEASSTSHTVEDCLHIKAIKTESSGLCQSSPGAQSSCSSEPSPLGSAPNNDSGMEMPGTGPGSLGDLTALADTCPGADTSALAAPSTGGLQLRKHMSTVHRFEQLKREKLKSLKDSCSWAGPAPHTRNTKLPPLPVNGSVLENFNNTGGGGPAGLLPSQRLPELTEVTMLSQLQERRDSSTSTMSSAYTVSRRSSGISPYFSSRRSSEASPLGGLRPHNASSADSYDPISTDASRRSSEASQCSGGGPGLLNLTPAQQYNLRAKYAAATGGPPPTPLPGLDRVSLRTRLALLDAPERALPGACPHPLGPRRGSDGPTYSHGHGHGYAGAAPAFPHEGPNSSTRRASDPVRRPDPLILPRVQRFHSTHNMNPGSLPPCADRRGLHVQSHPSVDSNLTRNAYSPRPPSINENVVMEAVAAGVDGPGLECDLGLVEDELVLPDDVVQYIKAHTGGTLDDGIRQGYPTEGTGFPENSKLPSPGLQGHRRLAAADSNMGPSAPGLGGCQLSYSPSSNLNKSNMPVQWNEVSSGTVDALPTQVKPPPFPHSNLAVVQQKPAFGQYPGYNPQSVQSSSGGLDSTQPHLQLRGAPSASRGSYTQQPRQPAAGSQCLGMSAAMSPQASYSQAHPQLSPNIVSGSLNQFSPSCSNMAAKPSHLGLPQQMEVVPNATIMNGHQREHGVPNSSLAAVSQPHPVLSYPQQDSYQQGSNLLSSHQPGFMESQQNAGFGLMQPRPPLEPNTASRHRGVRSGQQQLYARTTGQAMVTSANQETAEAMPKGPAGTMVSLAPQPSQDTGRAQDQNTLYYYGQIHMYEQNGGCPAVQPQPPQPQACSDSIQPEPLPSPGVNQVSSTVDSQLLEPPQIDFDAIMDDGDHSSLFSGALSPTLLHNLSQNSSRLTTPRNSLTLPSIPAGISNMAVGDMSSMLTSLAEESKFLNMMT | decreases | increases |  |
| Gli2 (GLI family zinc finger 2): S355D (protein) parent chain: METSAPAPALEKKEAKSGLLEDSSFPDPGKKACPLAVAAAVAAHGVPQQLLPAFHAPLPIDMRHQEGRYHYDPHSVHSVHGPPTLSGSPVISDISLIRLSPHPAGPGESPFSAHHPYVNPHMEHYLRSVHSSPTLSMISAARGLSPADVAHEHLKERGLFSLAAPGTNPSDYYHQMTLMASHPTPYGDLLMQSGGAASAPHLHDYLNPVDASRFSSPRVTPRLSRKRALSISPLSDASLDLQRMIRTSPNSLVAYINNSRSSSAASGSYGHLSAGALSPAFTFPHPINPVAYQQILSQQRGLGSAFGHTPPLIQPSPTFLAQQPMTLTSISTMPTQLSSSSSNCLNDANQNKQNSESAVSSTVNPITIHKRSKVKTEAEGLRPASPLGLTQEQLADLKEDLDRDDCKQEAEVVIYETNCHWADCTKEYDTQEQLVHHINNEHIHGEKKEFVCRWQACTREQKPFKAQYMLVVHMRRHTGEKPHKCTFEGCSKAYSRLENLKTHLRSHTGEKPYVCEHEGCNKAFSNASDRAKHQNRTHSNEKPYICKIPGCTKRYTDPSSLRKHVKTVHGPDAHVTKKQRNDVHVRAPLLKENGDNEASAEPGGRGPEESVEASSTSHTVEDCLHIKAIKTESSGLCQSSPGAQSSCSSEPSPLGSAPNNDSGMEMPGTGPGSLGDLTALADTCPGADTSALAAPSTGGLQLRKHMSTVHRFEQLKREKLKSLKDSCSWAGPAPHTRNTKLPPLPVNGSVLENFNNTGGGGPAGLLPSQRLPELTEVTMLSQLQERRDSSTSTMSSAYTVSRRSSGISPYFSSRRSSEASPLGGLRPHNASSADSYDPISTDASRRSSEASQCSGGGPGLLNLTPAQQYNLRAKYAAATGGPPPTPLPGLDRVSLRTRLALLDAPERALPGACPHPLGPRRGSDGPTYSHGHGHGYAGAAPAFPHEGPNSSTRRASDPVRRPDPLILPRVQRFHSTHNMNPGSLPPCADRRGLHVQSHPSVDSNLTRNAYSPRPPSINENVVMEAVAAGVDGPGLECDLGLVEDELVLPDDVVQYIKAHTGGTLDDGIRQGYPTEGTGFPENSKLPSPGLQGHRRLAAADSNMGPSAPGLGGCQLSYSPSSNLNKSNMPVQWNEVSSGTVDALPTQVKPPPFPHSNLAVVQQKPAFGQYPGYNPQSVQSSSGGLDSTQPHLQLRGAPSASRGSYTQQPRQPAAGSQCLGMSAAMSPQASYSQAHPQLSPNIVSGSLNQFSPSCSNMAAKPSHLGLPQQMEVVPNATIMNGHQREHGVPNSSLAAVSQPHPVLSYPQQDSYQQGSNLLSSHQPGFMESQQNAGFGLMQPRPPLEPNTASRHRGVRSGQQQLYARTTGQAMVTSANQETAEAMPKGPAGTMVSLAPQPSQDTGRAQDQNTLYYYGQIHMYEQNGGCPAVQPQPPQPQACSDSIQPEPLPSPGVNQVSSTVDSQLLEPPQIDFDAIMDDGDHSSLFSGALSPTLLHNLSQNSSRLTTPRNSLTLPSIPAGISNMAVGDMSSMLTSLAEESKFLNMMT | decreases |  |  |
| human GLI2: S358A (protein) parent chain: METSASATASEKQEAKSGILEAAGFPDPGKKASPLVVAAAAAAAVAAQGVPQHLLPPFHAPLPIDMRHQEGRYHYEPHSVHGVHGPPALSGSPVISDISLIRLSPHPAGPGESPFNAPHPYVNPHMEHYLRSVHSSPTLSMISAARGLSPADVAQEHLKERGLFGLPAPGTTPSDYYHQMTLVAGHPAPYGDLLMQSGGAASAPHLHDYLNPVDVSRFSSPRVTPRLSRKRALSISPLSDASLDLQRMIRTSPNSLVAYINNSRSSSAASGSYGHLSAGALSPAFTFPHPINPVAYQQILSQQRGLGSAFGHTPPLIQPSPTFLAQQPMALTSINATPTQLSSSSNCLSDTNQNKQSSESAVSSTVNPVAIHKRSKVKTEPEGLRPASPLALTQGQVSGHGSCGCALPLSQEQLADLKEDLDRDDCKQEAEVVIYETNCHWEDCTKEYDTQEQLVHHINNEHIHGEKKEFVCRWQACTREQKPFKAQYMLVVHMRRHTGEKPHKCTFEGCSKAYSRLENLKTHLRSHTGEKPYVCEHEGCNKAFSNASDRAKHQNRTHSNEKPYICKIPGCTKRYTDPSSLRKHVKTVHGPDAHVTKKQRNDVHLRTPLLKENGDSEAGTEPGGPESTEASSTSQAVEDCLHVRAIKTESSGLCQSSPGAQSSCSSEPSPLGSAPNNDSGVEMPGTGPGSLGDLTALDDTPPGADTSALAAPSAGGLQLRKHMTTMHRFEQLKKEKLKSLKDSCSWAGPTPHTRNTKLPPLPGSGSILENFSGSGGGGPAGLLPNPRLSELSASEVTMLSQLQERRDSSTSTVSSAYTVSRRSSGISPYFSSRRSSEASPLGAGRPHNASSADSYDPISTDASRRSSEASQCSGGSGLLNLTPAQQYSLRAKYAAATGGPPPTPLPGLERMSLRTRLALLDAPERTLPAGCPRPLGPRRGSDGPTYGHGHAGAAPAFPHEAPGGGARRASDPVRRPDALSLPRVQRFHSTHNVNPGPLPPCADRRGLRLQSHPSTDGGLARGAYSPRPPSISENVAMEAVAAGVDGAGPEADLGLPEDDLVLPDDVVQYIKAHASGALDEGTGQVYPTESTGFSDNPRLPSPGLHGQRRMVAADSNVGPSAPMLGGCQLGFGAPSSLNKNNMPVQWNEVSSGTVDALASQVKPPPFPQGNLAVVQQKPAFGQYPGYSPQGLQASPGGLDSTQPHLQPRSGAPSQGIPRVNYMQQLRQPVAGSQCPGMTTTMSPHACYGQVHPQLSPSTISGALNQFPQSCSNMPAKPGHLGHPQQTEVAPDPTTMGNRHRELGVPDSALAGVPPPHPVQSYPQQSHHLAASMSQEGYHQVPSLLPARQPGFMEPQTGPMGVATAGFGLVQPRPPLEPSPTGRHRGVRAVQQQLAYARATGHAMAAMPSSQETAEAVPKGAMGNMGSVPPQPPPQDAGGAPDHSMLYYYGQIHMYEQDGGLENLGSCQVMRSQPPQPQACQDSIQPQPLPSPGVNQVSSTVDSQLLEAPQIDFDAIMDDGDHSSLFSGALSPSLLHSLSQNSSRLTTPRNSLTLPSIPAGISNMAVGDMSSMLTSLAEESKFLNMMT |  |  | decreases |
| human GLI2: S358D (protein) parent chain: METSASATASEKQEAKSGILEAAGFPDPGKKASPLVVAAAAAAAVAAQGVPQHLLPPFHAPLPIDMRHQEGRYHYEPHSVHGVHGPPALSGSPVISDISLIRLSPHPAGPGESPFNAPHPYVNPHMEHYLRSVHSSPTLSMISAARGLSPADVAQEHLKERGLFGLPAPGTTPSDYYHQMTLVAGHPAPYGDLLMQSGGAASAPHLHDYLNPVDVSRFSSPRVTPRLSRKRALSISPLSDASLDLQRMIRTSPNSLVAYINNSRSSSAASGSYGHLSAGALSPAFTFPHPINPVAYQQILSQQRGLGSAFGHTPPLIQPSPTFLAQQPMALTSINATPTQLSSSSNCLSDTNQNKQSSESAVSSTVNPVAIHKRSKVKTEPEGLRPASPLALTQGQVSGHGSCGCALPLSQEQLADLKEDLDRDDCKQEAEVVIYETNCHWEDCTKEYDTQEQLVHHINNEHIHGEKKEFVCRWQACTREQKPFKAQYMLVVHMRRHTGEKPHKCTFEGCSKAYSRLENLKTHLRSHTGEKPYVCEHEGCNKAFSNASDRAKHQNRTHSNEKPYICKIPGCTKRYTDPSSLRKHVKTVHGPDAHVTKKQRNDVHLRTPLLKENGDSEAGTEPGGPESTEASSTSQAVEDCLHVRAIKTESSGLCQSSPGAQSSCSSEPSPLGSAPNNDSGVEMPGTGPGSLGDLTALDDTPPGADTSALAAPSAGGLQLRKHMTTMHRFEQLKKEKLKSLKDSCSWAGPTPHTRNTKLPPLPGSGSILENFSGSGGGGPAGLLPNPRLSELSASEVTMLSQLQERRDSSTSTVSSAYTVSRRSSGISPYFSSRRSSEASPLGAGRPHNASSADSYDPISTDASRRSSEASQCSGGSGLLNLTPAQQYSLRAKYAAATGGPPPTPLPGLERMSLRTRLALLDAPERTLPAGCPRPLGPRRGSDGPTYGHGHAGAAPAFPHEAPGGGARRASDPVRRPDALSLPRVQRFHSTHNVNPGPLPPCADRRGLRLQSHPSTDGGLARGAYSPRPPSISENVAMEAVAAGVDGAGPEADLGLPEDDLVLPDDVVQYIKAHASGALDEGTGQVYPTESTGFSDNPRLPSPGLHGQRRMVAADSNVGPSAPMLGGCQLGFGAPSSLNKNNMPVQWNEVSSGTVDALASQVKPPPFPQGNLAVVQQKPAFGQYPGYSPQGLQASPGGLDSTQPHLQPRSGAPSQGIPRVNYMQQLRQPVAGSQCPGMTTTMSPHACYGQVHPQLSPSTISGALNQFPQSCSNMPAKPGHLGHPQQTEVAPDPTTMGNRHRELGVPDSALAGVPPPHPVQSYPQQSHHLAASMSQEGYHQVPSLLPARQPGFMEPQTGPMGVATAGFGLVQPRPPLEPSPTGRHRGVRAVQQQLAYARATGHAMAAMPSSQETAEAVPKGAMGNMGSVPPQPPPQDAGGAPDHSMLYYYGQIHMYEQDGGLENLGSCQVMRSQPPQPQACQDSIQPQPLPSPGVNQVSSTVDSQLLEAPQIDFDAIMDDGDHSSLFSGALSPSLLHSLSQNSSRLTTPRNSLTLPSIPAGISNMAVGDMSSMLTSLAEESKFLNMMT |  |  | decreases |
